Measurements published in patent publication US5679525.

Molecular target: CBF1 (RBPJK), purified from HeLa (Homo sapiens) (UniProt Q06330)
Assay: competition

CBF1 (RBPJK), purified from HeLa (Homo sapiens), sequence (Q06330 other isoform, or with tags, fused parts or gaps): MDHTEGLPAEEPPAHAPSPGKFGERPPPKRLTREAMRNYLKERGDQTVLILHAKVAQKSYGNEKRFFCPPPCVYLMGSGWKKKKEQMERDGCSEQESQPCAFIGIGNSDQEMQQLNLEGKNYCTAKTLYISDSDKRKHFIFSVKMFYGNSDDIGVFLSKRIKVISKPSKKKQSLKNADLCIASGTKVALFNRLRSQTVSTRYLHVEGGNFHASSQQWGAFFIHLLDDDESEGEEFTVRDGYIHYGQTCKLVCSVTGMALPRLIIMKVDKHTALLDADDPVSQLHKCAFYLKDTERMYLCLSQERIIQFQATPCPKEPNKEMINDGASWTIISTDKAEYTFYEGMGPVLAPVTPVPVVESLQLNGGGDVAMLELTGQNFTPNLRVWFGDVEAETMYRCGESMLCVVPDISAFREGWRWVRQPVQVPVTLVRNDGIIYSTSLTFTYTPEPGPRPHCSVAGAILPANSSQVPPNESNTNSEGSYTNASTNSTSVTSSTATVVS

Sequence “TATATGCCCGGGAAAGTTTTTGTATTCC (double strand) [ELAMp kB-2]” has a binding signal (% reduction at 10 pmol competitor) (2% at 0.1, 27% at 1.0 pmol) of 51.
For “CAAGAGACAGAGTTTCTAAGCTTATTGTAATTTTAAGCATCG (double strand) [Unrelated]”, the binding signal (% reduction at 10 pmol competitor) (0% at all amounts) was 0.
For “GGAAACACGCCGTGGGAAAAAATTTGGC (double strand) [Cp (EBV C-promoter EBNA2 responsive element)]”, the binding signal (% reduction at 10 pmol competitor) (EMSA competition against Cp probe, 51% at 0.1, 90% at 1.0 pmol) was 98.
Sequence “GGACTACCACTGTGCCTTCCTCTGGAGG (double strand) [Heptamer-BamHI]” has a binding signal (% reduction at 10 pmol competitor) (0% at 0.1 and 1.0 pmol, additional 40-fold reduction versus Heptamer+BamHI) of 8.
Sequence “TCCTTCAGCCCTGTGGGAACTTGCTGCT (double strand) [CD23p]” has a binding signal (% reduction at 10 pmol competitor) (22% at 0.1, 70% at 1.0 pmol, approx 2.5-fold weaker than Cp) of 91.
Sequence “GGACTACCACTGTGGGATCCTCTGGAGG (double strand) [Heptamer+BamHI]” has a binding signal (% reduction at 10 pmol competitor) (0% at 0.1, 31% at 1.0 pmol, approx 16-fold weaker than Cp) of 75.
Sequence “GGAAACACGCCGTGGCTAAAAATTTGGG (double strand) [Cp-Mut]” has a binding signal (% reduction at 10 pmol competitor) (0% at 0.1 and 1.0 pmol, approx 250-fold weaker than Cp) of 19.
Work on “GATGCCATTGGGGATTTCCTCTTTACTG (double strand) [ELAM kB-3]” yielded a binding signal (% reduction at 10 pmol competitor) (0% at 0.1 and 1.0 pmol) of 14.
“AAGCATCGTGGATATTCCCGGCACAGCT (double strand) [ELAMp kB-1]” was tested, and the binding signal (% reduction at 10 pmol competitor) (0% at 0.1, 8% at 1.0 pmol) was 44.
